Data as given in IntAct's records for PubMed 18502764.

Target: ehd2_mouse Ehd2 (UniProt Q8BH64)
UniProt Q8BH64, sequence (Q8BH64 whole entry): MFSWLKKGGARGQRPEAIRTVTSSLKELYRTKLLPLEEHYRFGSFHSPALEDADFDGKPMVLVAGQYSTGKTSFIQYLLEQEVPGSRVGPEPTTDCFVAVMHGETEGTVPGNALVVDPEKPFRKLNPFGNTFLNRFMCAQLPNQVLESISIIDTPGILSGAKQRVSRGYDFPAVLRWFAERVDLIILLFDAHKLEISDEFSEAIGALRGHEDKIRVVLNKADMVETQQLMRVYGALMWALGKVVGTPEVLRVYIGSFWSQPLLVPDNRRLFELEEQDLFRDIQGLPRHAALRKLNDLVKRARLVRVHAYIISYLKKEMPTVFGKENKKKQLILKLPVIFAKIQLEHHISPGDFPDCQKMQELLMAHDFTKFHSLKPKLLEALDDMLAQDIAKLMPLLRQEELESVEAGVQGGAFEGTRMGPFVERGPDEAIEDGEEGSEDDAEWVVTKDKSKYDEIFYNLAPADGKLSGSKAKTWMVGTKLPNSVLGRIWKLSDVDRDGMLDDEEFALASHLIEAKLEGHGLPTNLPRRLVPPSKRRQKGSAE

Myoferlin (Homo sapiens), Q9NZM1 N238C
effect of a mutation on the interaction: decreasing interaction
